Experimental findings from the supplement of paper PMC11316812 are described below.

± gives the standard deviation of the averaged measurements.

The subject of one data set is MCF7. As to the kind of experiment: percentage of EdU-negative (G0-arrested) nuclei per well, 72 h; higher = more G0 arrest. Particulars: reference: sequence is the full UniProt precursor, the tested protein was the secreted form or ectodomain.
The test system of a further data set is hTERT-HMEC. The data set is described as above. Conditions: reference: sequence is the full UniProt precursor, the tested protein was the secreted form or ectodomain.
Where [1] appears, read: protein concentration 0.0225 µM.
Setting [2] is: protein concentration 0.02025 µM.
Setting [3] is: protein concentration 0.2025 µM.
Setting [4] is: protein concentration 0.01225 µM.
[5] abbreviates: protein concentration 0.1225 µM.
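Further: secreted proteins added to cultured cells, EdU pulse at the end, nuclei found by Hoechst imaging, EdU status from nuclear versus surrounding ring intensity ratio, PBS as neutral control.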

As for “MQAPGRGPLGLRLMMPGRRGALREPGGCGSCLGVALALLLLLLPACCPVRAQNDTEPIVLEGKCLVVCDSSPSADGAVTSSLGISVRSGSAKVAFSATRSTNHEPSEMSNRTMTIYFDQVLVNIGNHFDLASSIFVAPRKGIYSFSFHVVKVYNRQTIQVSLMQNGYPVISAFAGDQDVTREAASNGVLLLMEREDKVHLKLERGNLMGGWKYSTFSGFLVFPL [Q8IUK8]”, the “percentage of EdU-negative” value in the data set on MCF7 (setting [1]) was found to be 26.91 ± 0.25%; with MCF7 (protein concentration 0.225 µM), 26.76 ± 0.11%; in the data set with hTERT-HMEC (setting [1]), 4.67 ± 0.45%; in the data set on hTERT-HMEC (protein concentration 0.225 µM), 5.29 ± 0.93%.
With “MKPATGLWVWVSLLVAAGTVQPSDSQSVCAGTENKLSSLSDLEQQYRALRKYYENCEVVMGNLEITSIEHNRDLSFLRSVREVTGYVLVALNQFRYLPLENLRIIRGTKLYEDRYALAIFLNYRKDGNFGLQELGLKNLTEILNGGVYVDQNKFLCYADTIHWQDIVRNPWPSNLTLVSTNGSSGCGRCHKSCTGRCWGPTENHCQTLTRTVCAEQCDGRCYGPYVSDCCHRECAGGCSGPKDTDCFACMNFNDSGACVTQCPQTFVYNPTTFQLEHNFNAKYTYGAFCVKKCPHNFVVDSSSCVRACPSSKMEVEENGIKMCKPCTDICPKACDGIGTGSLMSAQTVDSSNIDKFINCTKINGNLIFLVTGIHGDPYNAIEAIDPEKLNVFRTVREITGFLNIQSWPPNMTDFSVFSNLVTIGGRVLYSGLSLLILKQQGITSLQFQSLKEISAGNIYITDNSNLCYYHTINWTTLFSTINQRIVIRDNRKAENCTAEGMVCNHLCSSDGCWGPGPDQCLSCRRFSRGRICIESCNLYDGEFREFENGSICVECDPQCEKMEDGLLTCHGPGPDNCTKCSHFKDGPNCVEKCPDGLQGANSFIFKYADPDRECHPCHPNCTQGCNGPTSHDCIYYPWTGHSTLPQHARTPLIAAGVIGGLFILVIVGLTFAVYVRRKSIKKKRALRRFLETELVEPLTPSGTAPNQAQLRILKETELKRVKVLGSGAFGTVYKGIWVPEGETVKIPVAIKILNETTGPKANVEFMDEALIMASMDHPHLVRLLGVCLSPTIQLVTQLMPHGCLLEYVHEHKDNIGSQLLLNWCVQIAKGMMYLEERRLVHRDLAARNVLVKSPNHVKITDFGLARLLEGDEKEYNADGGKMPIKWMALECIHYRKFTHQSDVWSYGVTIWELMTFGGKPYDGIPTREIPDLLEKGERLPQPPICTIDVYMVMVKCWMIDADSRPKFKELAAEFSRMARDPQRYLVIQGDDRMKLPSPNDSKFFQNLLDEEDLEDMMDAEEYLVPQAFNIPPPIYTSRARIDSNRSEIGHSPPPAYTPMSGNQFVYRDGGFAAEQGVSVPYRAPTSTIPEAPVAQGATAEIFDDSCCNGTLRKPVAPHVQEDSSTQRYSADPTVFAPERSPRGELDEEGYMTPMRDKPKQEYLNPVEENPFVSRRKNGDLQALDNPEYHNASNGPPKAEDEYVNEPLYLNTFANTLGKAEYLKNNILSMPEKAKKAFDNPDYWNHSLPPRSTLQHPDYLQEYSTKYFYKQNGRIRPIVAENPEYLSEFSLKPGTVLPPPPYRHRNTVV”, the “percentage of EdU-negative” value in the data set on MCF7 (setting [2]) was 26.2 ± 1.2%; with MCF7 (setting [3]) it was 25.4 ± 1.2%; in the data set on hTERT-HMEC (setting [2]), 4.75 ± 0.55%; in the data set with hTERT-HMEC (setting [3]) it was 7.8 ± 0.72%.
Regarding “MIPFLPMFSLLLLLIVNPINANNHYDKILAHSRIRGRDQGPNVCALQQILGTKKKYFSTCKNWYKKSICGQKTTVLYECCPGYMRMEGMKGCPAVLPIDHVYGTLGIVGATTTQRYSDASKLREEIEGKGSFTYFAPSNEAWDNLDSDIRRGLESNVNVELLNALHSHMINKRMLTKDLKNGMIIPSMYNNLGLFINHYPNGVVTVNCARIIHGNQIATNGVVHVIDRVLTQIGTSIQDFIEAEDDLSSFRAAAITSDILEALGRDGHFTLFAPTNEAFEKLPRGVLERIMGDKVASEALMKYHILNTLQCSESIMGGAVFETLEGNTIEIGCDGDSITVNGIKMVNKKDIVTNNGVIHLIDQVLIPDSAKQVIELAGKQQTTFTDLVAQLGLASALRPDGEYTLLAPVNNAFSDDTLSMDQRLLKLILQNHILKVKVGLNELYNGQILETIGGKQLRVFVYRTAVCIENSCMEKGSKQGRNGAIHIFREIIKPAEKSLHEKLKQDKRFSTFLSLLEAADLKELLTQPGDWTLFVPTNDAFKGMTSEEKEILIRDKNALQNIILYHLTPGVFIGKGFEPGVTNILKTTQGSKIFLKEVNDTLLVNELKSKESDIMTTNGVIHVVDKLLYPADTPVGNDQLLEILNKLIKYIQIKFVRGSTFKEIPVTVYTTKIITKVVEPKIKVIEGSLQPIIKTEGPTLTKVKIEGEPEFRLIKEGETITEVIHGEPIIKKYTKIIDGVPVEITEKETREERIITGPEIKYTRISTGGGETEETLKKLLQEEVTKVTKFIEGGDGHLFEDEEIKRLLQGDTPVRKLQANKKVQGSRRRLREGRSQ”, the “percentage of EdU-negative” value in the data set with MCF7 (setting [4]) amounted to 25.5 ± 0.97%; in the data set with MCF7 (setting [5]), 27.4 ± 1.6%; in the data set on hTERT-HMEC (setting [4]) it was 5.41 ± 1.4%; in the data set on hTERT-HMEC (setting [5]), 5 ± 1.3%.
Turning to “MKGFTATLFLWTLIFPSCSGGGGGKAWPTHVVCSDSGLEVLYQSCDPLQDFGFSVEKCSKQLKSNINIRFGIILREDIKELFLDLALMSQGSSVLNFSYPICEAALPKFSFCGRRKGEQIYYAGPVNNPEFTIPQGEYQVLLELYTEKRSTVACANATIMCS”, the “percentage of EdU-negative” value in the data set on MCF7 (setting [1]) came out at 28.5 ± 0.69%; in the data set on MCF7 (protein concentration 0.225 µM), 29.008 ± 0.011%; in the data set with hTERT-HMEC (setting [1]), 4.8 ± 0.29%; in the data set on hTERT-HMEC (protein concentration 0.225 µM) it was 6.1 ± 0.31%.
Take “MWCIVLFSLLAWVYAEPTMYGEILSPNYPQAYPSEVEKSWDIEVPEGYGIHLYFTHLDIELSENCAYDSVQIISGDTEEGRLCGQRSSNNPHSPIVEEFQVPYNKLQVIFKSDFSNEERFTGFAAYYVATDINECTDFVDVPCSHFCNNFIGGYFCSCPPEYFLHDDMKNCGVNCSGDVFTALIGEIASPNYPKPYPENSRCEYQIRLEKGFQVVVTLRREDFDVEAADSAGNCLDSLVFVAGDRQFGPYCGHGFPGPLNIETKSNALDIIFQTDLTGQKKGWKLRYHGDPMPCPKEDTPNSVWEPAKAKYVFRDVVQITCLDGFEVVEGRVGATSFYSTCQSNGKWSNSKLKCQPVDCGIPESIENGKVEDPESTLFGSVIRYTCEEPYYYMENGGGGEYHCAGNGSWVNEVLGPELPKCVPVCGVPREPFEEKQRIIGGSDADIKNFPWQVFFDNPWAGGALINEYWVLTAAHVVEGNREPTMYVGSTSVQTSRLAKSKMLTPEHVFIHPGWKLLEVPEGRTNFDNDIALVRLKDPVKMGPTVSPICLPGTSSDYNLMDGDLGLISGWGRTEKRDRAVRLKAARLPVAPLRKCKEVKVEKPTADAEAYVFTPNMICAGGEKGMDSCKGDSGGAFAVQDPNDKTKFYAAGLVSWGPQCGTYGLYTRVKNYVDWIMKTMQENSTPRED”: the “percentage of EdU-negative” value in the data set on MCF7 (setting [1]) came to 23.9 ± 1.2%; in the data set on MCF7 (protein concentration 0.225 µM), 24.2 ± 1.2%; in the data set with hTERT-HMEC (setting [1]) it was 4.97 ± 0.22%; in the data set on hTERT-HMEC (protein concentration 0.225 µM), 6.85 ± 3.7%.
